Series [1] deals with T1, Pou4f2D5;Isl1 (mouse;mouse, UniProt Q63934;P61372 125-411;1-349, |).
T1 sequence 1: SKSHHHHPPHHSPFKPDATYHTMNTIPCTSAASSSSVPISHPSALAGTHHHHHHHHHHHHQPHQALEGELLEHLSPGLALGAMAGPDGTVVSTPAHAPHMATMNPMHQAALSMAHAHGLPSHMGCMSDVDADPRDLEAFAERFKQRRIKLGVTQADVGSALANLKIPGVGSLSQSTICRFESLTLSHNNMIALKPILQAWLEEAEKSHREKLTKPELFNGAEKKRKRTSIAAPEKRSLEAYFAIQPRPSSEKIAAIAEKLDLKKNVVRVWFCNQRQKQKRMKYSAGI
T1 sequence 2: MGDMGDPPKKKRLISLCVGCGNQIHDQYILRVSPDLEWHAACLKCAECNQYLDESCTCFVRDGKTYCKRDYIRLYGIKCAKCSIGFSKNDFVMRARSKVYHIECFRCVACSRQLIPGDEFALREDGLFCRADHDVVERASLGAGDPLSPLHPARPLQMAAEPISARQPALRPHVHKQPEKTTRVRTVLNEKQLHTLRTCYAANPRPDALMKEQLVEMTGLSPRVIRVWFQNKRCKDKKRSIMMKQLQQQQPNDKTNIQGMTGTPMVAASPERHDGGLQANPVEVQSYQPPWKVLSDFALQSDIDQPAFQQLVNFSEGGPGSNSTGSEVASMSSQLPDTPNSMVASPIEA
The series can be described thus: EMSA; ternary complex; EMSA: 20 mM Tris-HCl pH 7.5, 50 mM NaCl, 10 mM DTT, 1 mM EDTA, 5% glycerol, 200 ng dI/dC, 200 ng each protein in 20 ul, 4 C, 30 min; 8% PAGE, 1x TBE, 4 C. As to conditions: protein: recombinant;recombinant, tags: His (C-terminal);His (C-terminal, pET-28a), copies: 1;1.

Series [2] addresses T2, Pou4f2 (Brn3b);Isl1 (mouse;mouse, UniProt Q63934;P61372 1-411;1-349, |).
T2 sequence 1: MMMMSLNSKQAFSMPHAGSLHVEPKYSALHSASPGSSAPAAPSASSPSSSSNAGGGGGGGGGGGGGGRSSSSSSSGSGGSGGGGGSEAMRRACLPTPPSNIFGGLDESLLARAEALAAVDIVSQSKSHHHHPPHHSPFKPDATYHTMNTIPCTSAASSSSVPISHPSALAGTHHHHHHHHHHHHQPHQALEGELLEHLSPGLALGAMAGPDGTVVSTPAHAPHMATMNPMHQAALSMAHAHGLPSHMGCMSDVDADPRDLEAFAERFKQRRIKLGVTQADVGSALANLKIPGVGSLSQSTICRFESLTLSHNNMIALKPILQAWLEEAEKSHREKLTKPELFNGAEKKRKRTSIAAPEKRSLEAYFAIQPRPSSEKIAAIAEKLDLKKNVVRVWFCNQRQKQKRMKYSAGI
T2 sequence 2: T1 sequence 2
Nature of the series: EMSA; EMSA: 20 mM Tris-HCl pH 7.5, 50 mM NaCl, 10 mM DTT, 1 mM EDTA, 5% glycerol, 200 ng dI/dC, 200 ng each protein in 20 ul, 4 C, 30 min; 8% PAGE, 1x TBE, 4 C. To be noted: protein: recombinant;recombinant; tags: His (C-terminal, pET-28a);His (C-terminal, pET-28a); copies: 1;1; (radiolabel, Klenow fill-in); 5' overhang 1 nt at both ends before fill-in.

The next series deals with T3, Isl1D4;Pou4f2 (Brn3b) (mouse;mouse, UniProt P61372;Q63934 146-349;1-411, |).
T3 sequence 1: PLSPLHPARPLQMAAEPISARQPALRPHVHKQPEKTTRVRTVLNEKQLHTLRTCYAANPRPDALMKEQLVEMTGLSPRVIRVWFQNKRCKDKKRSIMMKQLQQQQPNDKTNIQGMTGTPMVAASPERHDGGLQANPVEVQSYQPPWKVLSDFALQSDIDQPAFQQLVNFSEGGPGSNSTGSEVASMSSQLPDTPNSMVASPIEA
T3 sequence 2: T2 sequence 1
The series can be described thus: EMSA; ternary complex; EMSA: 20 mM Tris-HCl pH 7.5, 50 mM NaCl, 10 mM DTT, 1 mM EDTA, 5% glycerol, 200 ng dI/dC, 200 ng each protein in 20 ul, 4 C, 30 min; 8% PAGE, 1x TBE, 4 C. To be noted: protein: recombinant;recombinant; tags: His (C-terminal);His (C-terminal, pET-28a); copies: 1;1; (radiolabel, Klenow fill-in); 5' overhang 1 nt at both ends before fill-in.

For a further series, the target named is T4, Pou4f2D4;Isl1 (mouse;mouse, UniProt Q63934;P61372 169-411;1-349, |).
T4 sequence 1: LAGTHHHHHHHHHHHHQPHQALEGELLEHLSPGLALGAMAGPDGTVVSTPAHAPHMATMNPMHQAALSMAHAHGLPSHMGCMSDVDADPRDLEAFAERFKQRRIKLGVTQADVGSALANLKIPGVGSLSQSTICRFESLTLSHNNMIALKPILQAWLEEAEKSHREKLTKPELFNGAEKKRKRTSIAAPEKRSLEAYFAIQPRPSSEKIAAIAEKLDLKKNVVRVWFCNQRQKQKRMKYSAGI
T4 sequence 2: T1 sequence 2
The description is as above. To be noted: protein: recombinant;recombinant; tags: His (C-terminal);His (C-terminal, pET-28a); copies: 1;1; (radiolabel, Klenow fill-in); 5' overhang 1 nt at both ends before fill-in.

The target in series [3] is T2, Pou4f2 (Brn3b);Isl1. Described as above. As to conditions: protein: recombinant;recombinant; tags: His (C-terminal, pET-28a);His (C-terminal, pET-28a); copies: 1;1; (radiolabel, Klenow fill-in); 5' overhang 1 nt at both ends before fill-in.
The target of the next series is T5, Isl1D5;Pou4f2 (Brn3b) (mouse;mouse, UniProt P61372;Q63934 74-349;1-411, |).
T5 sequence 1: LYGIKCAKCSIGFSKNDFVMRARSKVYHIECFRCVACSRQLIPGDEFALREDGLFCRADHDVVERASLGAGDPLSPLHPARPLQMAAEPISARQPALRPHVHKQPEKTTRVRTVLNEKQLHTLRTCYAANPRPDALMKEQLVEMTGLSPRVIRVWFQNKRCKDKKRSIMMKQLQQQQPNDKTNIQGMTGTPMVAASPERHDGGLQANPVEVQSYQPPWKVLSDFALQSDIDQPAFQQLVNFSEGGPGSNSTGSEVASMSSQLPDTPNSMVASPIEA
T5 sequence 2: T2 sequence 1
The series is described as above. As to conditions: protein: recombinant;recombinant; tags: His (C-terminal);His (C-terminal, pET-28a); copies: 1;1; (radiolabel, Klenow fill-in); 5' overhang 1 nt at both ends before fill-in.

The next series concerns the target T6, Isl1D3;Pou4f2 (Brn3b) (mouse;mouse, UniProt P61372;Q63934 170-349;1-411, |).
T6 sequence 1: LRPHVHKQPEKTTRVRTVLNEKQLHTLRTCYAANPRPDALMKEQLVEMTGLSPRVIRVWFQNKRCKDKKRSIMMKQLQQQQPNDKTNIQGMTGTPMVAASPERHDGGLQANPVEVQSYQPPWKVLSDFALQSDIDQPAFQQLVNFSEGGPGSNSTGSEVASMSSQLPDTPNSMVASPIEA
T6 sequence 2: T2 sequence 1
The series is described as above. To be noted: protein: recombinant;recombinant; tags: His (C-terminal);His (C-terminal, pET-28a); copies: 1;1; (radiolabel, Klenow fill-in); 5' overhang 1 nt at both ends before fill-in.

Series [4] has as its target T1, Pou4f2D5;Isl1. Nature of the series: EMSA; EMSA: 20 mM Tris-HCl pH 7.5, 50 mM NaCl, 10 mM DTT, 1 mM EDTA, 5% glycerol, 200 ng dI/dC, 200 ng each protein in 20 ul, 4 C, 30 min; 8% PAGE, 1x TBE, 4 C. To be noted: protein: recombinant;recombinant, tags: His (C-terminal);His (C-terminal, pET-28a), copies: 1;1.
Where [5] appears, read: (radiolabel, Klenow fill-in), 5' overhang 1 nt at both ends before fill-in.

B1: EBF3(W) (dsDNA)
DNA 1: GTGCGTTAATATTTTAATTAATCGGGAAAA
DNA 2: TTTTCCCGATTAATTAAAATATTAACGCAC
For B1, the binding result in the series with Pou4f2D5;Isl1 [1] ((radiolabel, Klenow), blunt) is on record as “binds”.

B2: SBRN3(M) (dsDNA)
DNA 1: GCACACGACCCAGCGCGTTGACAACCGGGCTG
DNA 2: GCAGCCCGGTTGTCAACGCGCTGGGTCGTGTG
As for B2, the binding result in the series with Pou4f2 (Brn3b);Isl1 [2] is listed as “no binding”.

B3: CBRN3(W) (dsDNA)
DNA 1: GATCTCTCCTGCATAATTAATTACCCCCGGAT
DNA 2: GATCCGGGGGTAATTAATTATGCAGGAGAGAT
Turning to B3, the binding result in the series with Isl1D4;Pou4f2 (Brn3b), in the series with Pou4f2D4;Isl1, with Pou4f2 (Brn3b);Isl1 [3], with Isl1D5;Pou4f2 (Brn3b), with Isl1D3;Pou4f2 (Brn3b) and with Pou4f2D5;Isl1 [1] (setting [5]) was “binds” throughout.

B4: SBRN3(W) (dsDNA)
DNA 1: GCACACGACCCAATGAATTAATAACCGGGCTG
DNA 2: GCAGCCCGGTTATTAATTCATTGGGTCGTGTG
Take B4: the binding result with Isl1D4;Pou4f2 (Brn3b), with Pou4f2D4;Isl1, with Pou4f2 (Brn3b);Isl1 [3], in the series with Isl1D5;Pou4f2 (Brn3b), in the series with Isl1D3;Pou4f2 (Brn3b) and with Pou4f2D5;Isl1 [1] (setting [5]) was “binds” each time.

B5: IRX6(W) (dsDNA)
DNA 1: GTACTACTAATTAATTAATTGCAAACATTTC
DNA 2: GGAAATGTTTGCAATTAATTAATTAGTAGTA
For B5, the binding result with Pou4f2D5;Isl1 [1] (setting [5]) is given as “binds”.

B6: IRX6(M) (dsDNA)
DNA 1: TACTACTGCTTCGTTGCTTGCAAACATTTC
DNA 2: GGAAATGTTTGCAAGCAACGAAGCAGTAGTA
In the case of B6, the binding result with Pou4f2D5;Isl1 [4] ((radiolabel, Klenow fill-in), one end blunt, lower strand 5' overhang 1 nt before fill-in) is “no binding”.

B7: CBRN3(M) (dsDNA)
DNA 1: GATCTCTCCTGCGCGGTTGACTACCCCCGGAT
DNA 2: GATCCGGGGGTAGTCAACCGCGCAGGAGAGAT
For B7, the binding result with Pou4f2 (Brn3b);Isl1 [2] is “no binding”.

B8: EBF3(M) (dsDNA)
DNA 1: GTGCGTTGCTATTTTCGTTGCTCGGGAAAA
DNA 2: TTTTCCCGAGCAACGAAAATAGCAACGCAC
With B8, the binding result with Pou4f2D5;Isl1 [4] ((radiolabel, Klenow), blunt) is “no binding”.
